Here are results for four molecules from article PMC4596688, “Structural determinants of nuclear export signal orientation in binding to exportin CRM1” (eLife, 2015).

This assay has as its target Full-length human CRM1 (HsCRM1), O14980. In words: GST pull-down, SDS/PAGE band intensity. The settings on record: chain shown with the change; excess ScRanGTP; triplicate experiments; parent: est. 100; read off a plot.

Chain of Full-length human CRM1 (HsCRM1), O14980 (O14980 whole entry): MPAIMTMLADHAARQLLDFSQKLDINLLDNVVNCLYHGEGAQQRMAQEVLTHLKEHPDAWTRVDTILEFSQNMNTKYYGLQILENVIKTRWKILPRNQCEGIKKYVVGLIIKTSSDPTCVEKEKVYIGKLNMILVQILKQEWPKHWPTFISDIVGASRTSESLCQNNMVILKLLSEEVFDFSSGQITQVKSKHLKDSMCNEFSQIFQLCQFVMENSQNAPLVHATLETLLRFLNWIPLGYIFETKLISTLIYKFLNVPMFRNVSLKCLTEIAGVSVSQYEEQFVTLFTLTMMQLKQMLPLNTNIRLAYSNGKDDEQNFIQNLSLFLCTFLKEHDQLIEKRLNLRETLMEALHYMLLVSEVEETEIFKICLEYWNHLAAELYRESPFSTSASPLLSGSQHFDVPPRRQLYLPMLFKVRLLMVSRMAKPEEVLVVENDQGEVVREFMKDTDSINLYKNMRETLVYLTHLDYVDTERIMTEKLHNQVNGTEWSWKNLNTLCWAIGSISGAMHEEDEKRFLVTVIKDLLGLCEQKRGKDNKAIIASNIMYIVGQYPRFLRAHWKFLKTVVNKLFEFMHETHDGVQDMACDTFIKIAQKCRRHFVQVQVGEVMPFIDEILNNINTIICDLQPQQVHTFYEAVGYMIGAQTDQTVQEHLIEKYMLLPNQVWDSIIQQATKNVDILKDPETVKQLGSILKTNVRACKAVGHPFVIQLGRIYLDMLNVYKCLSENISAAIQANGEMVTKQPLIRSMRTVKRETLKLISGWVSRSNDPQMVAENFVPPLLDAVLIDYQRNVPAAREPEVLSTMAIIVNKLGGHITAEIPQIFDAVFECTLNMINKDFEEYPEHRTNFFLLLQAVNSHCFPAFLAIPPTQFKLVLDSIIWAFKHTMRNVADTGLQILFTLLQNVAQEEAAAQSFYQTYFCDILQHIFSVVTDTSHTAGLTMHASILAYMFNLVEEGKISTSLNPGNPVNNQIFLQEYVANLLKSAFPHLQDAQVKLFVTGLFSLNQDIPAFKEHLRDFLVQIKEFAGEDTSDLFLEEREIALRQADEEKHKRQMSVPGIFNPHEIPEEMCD

In the case of GKIEELAQNFETLEFSR [GST-hRio2NES-R M11L], the percent of parent is 105%.
On to GKIEELAQNFETMEISR [GST-hRio2NES-R F13I], for which the percent of parent was 150%.
To GKIEELAQNFETMEVSR [GST-hRio2NES-R F13V] belongs 140%; to GKIEELAQNFETMELSR [GST-hRio2NES-R F13L], 130%.
